Experimental findings from US20190040368 are described below.

The data set has as its system recombinant human iduronate-2 sulfatase (rhIDS).

Chain of recombinant human iduronate-2 sulfatase (rhIDS) (chain, as listed by the source): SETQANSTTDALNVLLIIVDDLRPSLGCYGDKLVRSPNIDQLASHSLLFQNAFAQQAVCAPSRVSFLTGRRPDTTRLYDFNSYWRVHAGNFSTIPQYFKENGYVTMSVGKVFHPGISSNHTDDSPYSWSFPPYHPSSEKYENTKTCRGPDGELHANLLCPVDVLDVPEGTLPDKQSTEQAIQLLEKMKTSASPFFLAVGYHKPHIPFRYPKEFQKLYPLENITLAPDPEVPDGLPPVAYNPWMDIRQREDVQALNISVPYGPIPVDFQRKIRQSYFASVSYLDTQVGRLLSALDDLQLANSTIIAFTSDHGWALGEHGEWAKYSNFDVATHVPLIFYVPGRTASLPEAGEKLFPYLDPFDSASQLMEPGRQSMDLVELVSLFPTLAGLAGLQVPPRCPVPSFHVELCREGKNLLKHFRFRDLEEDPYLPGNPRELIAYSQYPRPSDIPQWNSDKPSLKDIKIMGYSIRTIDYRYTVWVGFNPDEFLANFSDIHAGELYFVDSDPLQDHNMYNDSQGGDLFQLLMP
Chain of Dendroctonus ponderosa Lip2-DpFGE-His6-HDEL fusion construct (chain, as listed by the source): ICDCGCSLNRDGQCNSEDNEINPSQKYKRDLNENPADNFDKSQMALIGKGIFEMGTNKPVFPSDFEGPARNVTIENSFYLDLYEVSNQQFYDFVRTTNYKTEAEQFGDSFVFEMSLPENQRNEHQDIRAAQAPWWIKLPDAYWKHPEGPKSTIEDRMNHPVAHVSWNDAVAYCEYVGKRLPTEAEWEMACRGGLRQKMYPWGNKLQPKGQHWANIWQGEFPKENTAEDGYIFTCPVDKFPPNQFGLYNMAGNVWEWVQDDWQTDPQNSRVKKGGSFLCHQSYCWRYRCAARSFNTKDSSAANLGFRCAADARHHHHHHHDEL

Turning to “Dendroctonus ponderosa Lip2-DpFGE-His6-HDEL fusion construct”, the % activity of rhIDS; co-expression with DpFGE was 5%.
